Key:
GST-IQGAP1-DBR (human) = GST-IQGAP1-DBR (human) (UniProt P46940); test: BLI; Octet RED96; GST-tagged ligands on GST biosensors; analyte 0.5 nM to 5 μM; PBS, 0.002% Tween-20, 0.1 mg/ml BSA; 30 °C; one site-specific binding, saturation curve
DIAPH1 (Homo sapiens) = DIAPH1 (Homo sapiens) (UniProt O60610); test: BLI; details: cited from earlier work
MBP-CLIP170-NT [1] = target: T1, MBP-CLIP170-NT (human); test: BLI; individual test 1
T1 chain: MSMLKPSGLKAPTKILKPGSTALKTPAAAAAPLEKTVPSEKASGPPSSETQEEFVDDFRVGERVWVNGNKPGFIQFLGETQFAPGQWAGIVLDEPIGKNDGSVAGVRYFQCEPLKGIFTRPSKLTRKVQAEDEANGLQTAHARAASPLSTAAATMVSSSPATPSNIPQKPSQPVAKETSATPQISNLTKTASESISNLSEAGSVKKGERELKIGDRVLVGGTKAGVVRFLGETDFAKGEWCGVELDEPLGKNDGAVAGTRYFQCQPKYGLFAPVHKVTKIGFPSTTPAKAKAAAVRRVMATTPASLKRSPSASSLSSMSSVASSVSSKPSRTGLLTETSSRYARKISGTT

MBP-CLIP170-NT [2] = target: T1, MBP-CLIP170-NT; test: BLI; individual test 2
His6-DIAPH1-NT = target: T2, His6-DIAPH1-NT (human, UniProt O60610 1-575); test: pull-down; 0.05 nmol GST-IQGAP1-DBR immobilised on GST beads, first partner equimolar 1 h, then second partner equimolar 1 h; 25 mM HEPES pH 7.5, 250 mM NaCl, 100 mM KCl, 0.5 mM beta-mercaptoethanol, 1 mM PMSF, 0.1% Triton X-100; 4 °C; anti-His6 and anti-MBP blots; details: both partners purified
T2 construct: human DIAPH1, N-terminal fragment, residues 1-575 of the 1272-residue protein; plasmid pET30a-DIAPH1-NT(1-575aa); Plasmid was a gift from J. Copeland; also called N-terminal fragment of DIAPH1; DIAPH1 N-terminal regulatory domains; source: E. coli BL21, purified (nickel-Sepharose)
T2 sequence (O60610 1-575): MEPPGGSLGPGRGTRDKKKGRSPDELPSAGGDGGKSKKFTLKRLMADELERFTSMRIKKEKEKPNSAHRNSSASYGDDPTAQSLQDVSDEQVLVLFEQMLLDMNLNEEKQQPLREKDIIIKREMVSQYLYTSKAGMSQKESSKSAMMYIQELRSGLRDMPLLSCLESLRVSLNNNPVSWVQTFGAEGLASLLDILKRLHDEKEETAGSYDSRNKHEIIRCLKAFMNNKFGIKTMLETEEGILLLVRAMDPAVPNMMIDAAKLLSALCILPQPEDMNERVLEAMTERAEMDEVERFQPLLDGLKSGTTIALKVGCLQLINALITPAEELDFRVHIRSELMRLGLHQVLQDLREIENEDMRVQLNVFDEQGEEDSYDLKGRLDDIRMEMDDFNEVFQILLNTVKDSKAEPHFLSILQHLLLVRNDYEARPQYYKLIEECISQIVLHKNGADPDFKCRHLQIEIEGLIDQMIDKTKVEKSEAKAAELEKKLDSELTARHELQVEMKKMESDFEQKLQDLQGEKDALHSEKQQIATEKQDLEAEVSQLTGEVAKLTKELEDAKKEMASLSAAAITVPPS

Chain of DIAPH1 (Homo sapiens) (O60610 whole entry): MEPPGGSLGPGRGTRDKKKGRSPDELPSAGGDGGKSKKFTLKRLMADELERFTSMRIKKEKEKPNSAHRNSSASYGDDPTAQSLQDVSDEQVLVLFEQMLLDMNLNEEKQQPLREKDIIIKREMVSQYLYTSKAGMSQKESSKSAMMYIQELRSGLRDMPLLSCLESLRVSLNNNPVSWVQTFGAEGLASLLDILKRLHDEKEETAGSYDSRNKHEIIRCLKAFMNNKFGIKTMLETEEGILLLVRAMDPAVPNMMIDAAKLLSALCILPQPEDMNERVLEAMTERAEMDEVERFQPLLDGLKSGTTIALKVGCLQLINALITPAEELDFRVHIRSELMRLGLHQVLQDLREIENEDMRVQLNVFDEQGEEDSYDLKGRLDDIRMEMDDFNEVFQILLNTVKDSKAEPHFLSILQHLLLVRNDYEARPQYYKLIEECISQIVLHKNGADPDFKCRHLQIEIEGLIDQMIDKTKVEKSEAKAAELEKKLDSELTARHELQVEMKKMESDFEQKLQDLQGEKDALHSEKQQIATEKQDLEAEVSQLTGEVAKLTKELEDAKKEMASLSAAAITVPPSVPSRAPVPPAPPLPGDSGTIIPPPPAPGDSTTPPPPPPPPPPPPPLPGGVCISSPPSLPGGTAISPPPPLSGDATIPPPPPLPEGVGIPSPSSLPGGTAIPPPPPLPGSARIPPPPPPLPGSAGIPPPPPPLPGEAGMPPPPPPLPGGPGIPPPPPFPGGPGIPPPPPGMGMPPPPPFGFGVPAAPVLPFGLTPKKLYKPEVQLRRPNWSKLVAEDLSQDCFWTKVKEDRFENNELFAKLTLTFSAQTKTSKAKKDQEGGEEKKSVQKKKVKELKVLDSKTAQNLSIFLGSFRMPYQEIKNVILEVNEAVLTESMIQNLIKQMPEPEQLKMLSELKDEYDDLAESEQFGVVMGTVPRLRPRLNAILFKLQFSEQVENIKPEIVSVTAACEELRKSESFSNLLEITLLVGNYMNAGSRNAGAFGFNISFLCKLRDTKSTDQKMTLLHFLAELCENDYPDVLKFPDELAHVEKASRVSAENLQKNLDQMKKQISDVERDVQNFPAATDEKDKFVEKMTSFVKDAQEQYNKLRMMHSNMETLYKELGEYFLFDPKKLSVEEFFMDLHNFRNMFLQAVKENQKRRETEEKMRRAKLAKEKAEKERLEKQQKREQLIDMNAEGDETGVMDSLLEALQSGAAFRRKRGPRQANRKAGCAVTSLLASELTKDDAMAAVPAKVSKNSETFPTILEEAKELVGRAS

Molecule: MBP-CLIP170-NT (domain or fragment)
- Kd (GST-IQGAP1-DBR (human)): 20.5 nM

Molecule: IQGAP1 (from UniProt P46940)
- Kd (DIAPH1 (Homo sapiens)): 81.2 nM

B1: GST-IQGAP1-DBR (domain or fragment, human, UniProt P46940 1500-1657, looked up)
chain: KAELVKLQQTYAALNSKATFYGEQVDYYKSYIKTCLDNLASKGKVSKKPREMKGKKSKKISLKYTAARLHEKGVLLEIEDLQVNQFKNVIFEISPTEEVGDFEVKAKFMGVQMETFMLHYQDLLQLQYEGVAVMKLFDRAKVNVNLLIFLLNKKFYGK
notes: cloned into pDEST15; also called IQGAP-DBR; source: E. coli BL21, purified (glutathione beads)
- Kd (MBP-CLIP170-NT [1]): 24.1 nM
- Kd (MBP-CLIP170-NT [2]): 15.6 nM
- binding result (His6-DIAPH1-NT): binds

Reference: article PMC8065111 (Nature Communications, 2021)
